Results on four molecules are retold here after patent publication US20120289467A1 (UNIVERSITY OF MARYLAND BALTIMORE, published 2012).

No end group written: not given here.

In assay [1] the target is T1, VE-cadherin fragment (UniProt P33151 48-477, limits assumed).
T1 construct: also called VE-caherin; immobilized VE-cadherin fragment
T1 sequence (looked up): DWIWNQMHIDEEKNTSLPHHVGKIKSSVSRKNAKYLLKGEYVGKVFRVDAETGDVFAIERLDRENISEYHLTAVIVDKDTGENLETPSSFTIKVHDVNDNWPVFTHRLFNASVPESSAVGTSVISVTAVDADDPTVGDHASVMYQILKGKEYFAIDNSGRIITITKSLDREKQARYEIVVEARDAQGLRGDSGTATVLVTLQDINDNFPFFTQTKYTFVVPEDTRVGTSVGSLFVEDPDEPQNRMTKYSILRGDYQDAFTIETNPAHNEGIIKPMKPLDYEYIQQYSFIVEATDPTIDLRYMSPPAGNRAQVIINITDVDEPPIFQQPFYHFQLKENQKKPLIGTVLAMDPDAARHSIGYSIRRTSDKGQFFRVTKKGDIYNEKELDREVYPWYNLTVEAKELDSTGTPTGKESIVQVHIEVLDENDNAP
Kind of assay: SPR (BIAcore), ratio of Kd values, reference β15-42. The procedure:
(§1) To test binding activities of fibrin beta chain derived peptides of the invention to VE-caherin, surface plasmon resonance (SPR) methods are, for example, used. SPR experiments are performed using, for example, a BIAcore 3000 biosensor (BIAcore AB, Uppsala, Sweden), which can be used to measure the association/dissociation of peptides or proteins in real-time (see, for example, Karlsson, R., and Falt, A. J. Immunol. Methods (1997) 200, 121-133; Hall, D. Anal. Biochem. (2001) 288, 109-125; see also Gorlatov et al. Biochemistry (2002) 41, 4107-4116 for other VE-cadherin binding assays including, for example, SPR IAsys Analysis based assays and ELISA based assays). An exemplary method is described in the following passage. VE-cadherin fragment is covalently coupled via epsilon-amino groups to the activated surface of a CM5 biosensor chip by the procedure described by, for example, Karlsson, R., and Falt, A. (J. Immunol. Methods (1997) 200, 121-133; see also Gorlatov et al. Biochemistry (2002) 41, 4107-4116). […] Samples comprising, for example, fibrin beta chain derived peptides β15-42, β15-64, and (β15-66)2, at different concentrations are injected in duplicate in at least three separate experiments and the association/dissociation between the immobilized and the added peptides is monitored as the change in the SPR response. […]
(In SPR one partner is held on a chip, and binding of the other changes the refractive index at the surface.)

Assay [2] concerns the target T1, VE-cadherin fragment. The experiment in a line: SPR (BIAcore), VE-cadherin fragment immobilized, peptide added up to 200 nM; dimeric peptide, added up to 200 nM. The procedure:
as §1

Assay [3] addresses T1, VE-cadherin fragment. Kind of assay: not stated on the sheet; the legend calls it the dissociation constant for the interaction with VE-cadherin.
The target of assay [4] is T1, VE-cadherin fragment. The assay is described as above. This is another data set of the same source.
Assay [5] addresses T1, VE-cadherin fragment. The experiment in a line: SPR (BIAcore), VE-cadherin fragment immobilized; monomeric peptide. The procedure:
as §1

In assay [6] the target is T2, VE-cadherin fragment, P33151.
T2 chain: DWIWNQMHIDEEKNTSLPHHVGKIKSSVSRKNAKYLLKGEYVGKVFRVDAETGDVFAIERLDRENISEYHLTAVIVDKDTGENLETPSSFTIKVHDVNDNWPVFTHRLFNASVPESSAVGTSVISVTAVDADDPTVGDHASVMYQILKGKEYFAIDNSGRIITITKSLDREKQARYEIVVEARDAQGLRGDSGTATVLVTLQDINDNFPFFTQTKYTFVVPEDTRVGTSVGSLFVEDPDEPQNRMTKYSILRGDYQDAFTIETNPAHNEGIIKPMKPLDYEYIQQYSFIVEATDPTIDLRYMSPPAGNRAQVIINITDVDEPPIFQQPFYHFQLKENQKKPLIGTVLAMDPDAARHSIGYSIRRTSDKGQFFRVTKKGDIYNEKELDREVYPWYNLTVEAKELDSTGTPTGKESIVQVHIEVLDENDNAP
The experiment in a line: plate assay read as absorbance at 450 nm, VE-cad(1-5) concentration varied (0-0.5 µM); format not described in the text.

B1: (β15-66)2 dimer peptide (peptide)
peptide: GHRPLDKKREEAPSLRPAPPPISGGGYRARPAKAAATQKKVERKAPDAGGCG
modifications: also: homodimer, Cys65-Cys65 disulfide
notes: Homodimer of two β15-66 chains, disulfide-linked via Cys65; Gly66 is not natural; also called dimeric (β15-66)2
As a reminder, the Kd is the free concentration of one partner at which half of the binding sites on the other are occupied at equilibrium, for simple one-to-one binding. A higher Kd goes with lower affinity. B1: the “fold increase in affinity against β15-42” value with VE-cadherin fragment [1] was found to be 3600 fold. The dissociation constant Kd stood at 70 nM with VE-cadherin fragment [2] and 27 nM with VE-cadherin fragment [3].

B2: (β15-44)2 dimer peptide (peptide)
peptide: GHRPLDKKREEAPSLRPAPPPISGGGYRCG
modifications: also: homodimer, Cys43-Cys43 disulfide
notes: Synthetic homodimer of two identical 30-residue chains, linked by a Cys43-Cys43 disulfide bond; also called dimeric (β15-44)2
With B2, binding in the assay with VE-cadherin fragment [4] was put at a Kd of 21 nM.

Turning to GHRPLDKKREEAPSLRPAPPPISGGGYR (also called monomeric β15-42) [β15-42 monomeric peptide], the Kd in the assay with VE-cadherin fragment [5] worked out at 252000 nM.

A word on the EC50 (read off the curve): it is the concentration needed to bring the measured effect to its halfway point. A high value points to a less potent agent. GHRPLDKKREEAPSLRPAPPPISYCG (also: homodimer linked through added Cys25) [(β15-40)2 dimer peptide] gave an EC50 (read off the curve) in assay [6] of 40 nM.
